Results taken from the supplement of paper PMC10567573.

B1: CSTF3 (parent)
chain: YVPEKVKKAEKKLEENPYDLDAWS

Variants of: B1
Assay: protein stability index of a GFP-peptide fusion (GPS, HEK-293T) (PSI 1-6); higher = more stable
Conditions: c terminus: a fixed tail appended
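Further: lentivirally expressed fusions sorted by FACS into six bins by GFP to DsRed ratio, PSI derived from sequencing read proportions per bin multiplied by bin number.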

Row | Variant | protein stability index
1 | YVPEKVKTAEKKLEENPYDLDAWS [K8T] | 2.37
2 | YVPEKVKYAEKKLEENPYDLDAWS [K8Y] | 1.72
3 | YVPEKVKFAEKKLEENPYDLDAWS [K8F] | 3.78
4 | YVPEKVKHAEKKLEENPYDLDAWS [K8H] | 2.27
5 | YVPEKVKAAEKKLEENPYDLDAWS [K8A] | 3.58
6 | YVPEKVKVAEKKLEENPYDLDAWS [K8V] | 2.21
7 | YVPEKVKDAEKKLEENPYDLDAWS [K8D] | 2.48
8 | YVPEKVKMAEKKLEENPYDLDAWS [K8M] | 2.97
9 | YVPEKVKIAEKKLEENPYDLDAWS [K8I] | 3.65
10 | YVPEKVKEAEKKLEENPYDLDAWS [K8E] | 2.9
11 | YVPEKVKCAEKKLEENPYDLDAWS [K8C] | 2.34
12 | YVPEKVKNAEKKLEENPYDLDAWS [K8N] | 2.92
13 | YVPEKVKSAEKKLEENPYDLDAWS [K8S] | 3.26
14 | YVPEKVKRAEKKLEENPYDLDAWS [K8R] | 2.54
15 | YVPEKVKQAEKKLEENPYDLDAWS [K8Q] | 3.12
16 | YVPEKVKWAEKKLEENPYDLDAWS [K8W] | 3.37
17 | YVPEKVKKARKKLEENPYDLDAWS [E10R] | 2.63
18 | YVPEKVKKAVKKLEENPYDLDAWS [E10V] | 2.18
19 | YVPEKVKKASKKLEENPYDLDAWS [E10S] | 2.56
20 | YVPEKVKKAMKKLEENPYDLDAWS [E10M] | 1.55
21 | YVPEKVKKATKKLEENPYDLDAWS [E10T] | 1.74
22 | YVPEKVKKAFKKLEENPYDLDAWS [E10F] | 2.32
23 | YVPEKVKKACKKLEENPYDLDAWS [E10C] | 3.32
24 | YVPEKVKKAPKKLEENPYDLDAWS [E10P] | 2

Row | Variant | protein stability index
25 | YVPEKVKKAHKKLEENPYDLDAWS [E10H] | 3.67
26 | YVPEKVKKANKKLEENPYDLDAWS [E10N] | 3.24
27 | YVPEKVKKAWKKLEENPYDLDAWS [E10W] | 1.98
28 | YVPEKVKKAYKKLEENPYDLDAWS [E10Y] | 2.86
29 | YVPEKVKKAGKKLEENPYDLDAWS [E10G] | 2.97
30 | YVPEKVKKAKKKLEENPYDLDAWS [E10K] | 3.68
31 | YVPEKVKKAQKKLEENPYDLDAWS [E10Q] | 3.08
32 | YVPEKVKKAIKKLEENPYDLDAWS [E10I] | 1.86
33 | YVPEKVKKAAKKLEENPYDLDAWS [E10A] | 1.93
34 | YVPEKVKKADKKLEENPYDLDAWS [E10D] | 1.92
35 | YVPEKVDKAEKKLEENPYDLDAWS [K7D] | 2.54
36 | YVPEKVRKAEKKLEENPYDLDAWS [K7R] | 2.73
37 | YVPEKVAKAEKKLEENPYDLDAWS [K7A] | 2.17
38 | YVPEKVFKAEKKLEENPYDLDAWS [K7F] | 2.26
39 | YVPEKVQKAEKKLEENPYDLDAWS [K7Q] | 2
40 | YVPEKVHKAEKKLEENPYDLDAWS [K7H] | 3.08
41 | YVPEKVVKAEKKLEENPYDLDAWS [K7V] | 1.91
42 | YVPEKVEKAEKKLEENPYDLDAWS [K7E] | 2.56
43 | YVPEKVMKAEKKLEENPYDLDAWS [K7M] | 1.52
44 | YVPEKVWKAEKKLEENPYDLDAWS [K7W] | 2.89
45 | YVPEKVIKAEKKLEENPYDLDAWS [K7I] | 2.17
46 | YVPEKVYKAEKKLEENPYDLDAWS [K7Y] | 2.48
47 | YVPEKVSKAEKKLEENPYDLDAWS [K7S] | 2.47
48 | YVPEKVTKAEKKLEENPYDLDAWS [K7T] | 2.94

Row | Variant | protein stability index
49 | YVPEKVNKAEKKLEENPYDLDAWS [K7N] | 3.83
50 | YVPEKVCKAEKKLEENPYDLDAWS [K7C] | 2.12
51 | YVPEKVPKAEKKLEENPYDLDAWS [K7P] | 3.13
52 | YVPEKVLKAEKKLEENPYDLDAWS [K7L] | 3.11
53 | YVPEKVGKAEKKLEENPYDLDAWS [K7G] | 1.91
54 | YVPEKYKKAEKKLEENPYDLDAWS [V6Y] | 2.75
55 | YVPEKSKKAEKKLEENPYDLDAWS [V6S] | 2.15
56 | YVPEKRKKAEKKLEENPYDLDAWS [V6R] | 1.35
57 | YVPEKPKKAEKKLEENPYDLDAWS [V6P] | 1.26
58 | YVPEKWKKAEKKLEENPYDLDAWS [V6W] | 2.57
59 | YVPEKDKKAEKKLEENPYDLDAWS [V6D] | 2.22
60 | YVPEKMKKAEKKLEENPYDLDAWS [V6M] | 2.66
61 | YVPEKIKKAEKKLEENPYDLDAWS [V6I] | 3.77
62 | YVPEKQKKAEKKLEENPYDLDAWS [V6Q] | 2.35
63 | YVPEKNKKAEKKLEENPYDLDAWS [V6N] | 2.72
64 | YVPEKHKKAEKKLEENPYDLDAWS [V6H] | 2.04
65 | YVPEKEKKAEKKLEENPYDLDAWS [V6E] | 2
66 | YVPEKGKKAEKKLEENPYDLDAWS [V6G] | 2.04
67 | YVPEKTKKAEKKLEENPYDLDAWS [V6T] | 1.58
68 | YVPEKVKKAEGKLEENPYDLDAWS [K11G] | 2.01
69 | YVPEKVKKAEAKLEENPYDLDAWS [K11A] | 2.32
70 | YVPEKVKKAEMKLEENPYDLDAWS [K11M] | 2.42
71 | YVPEKVKKAEDKLEENPYDLDAWS [K11D] | 2.07
72 | YVPEKVKKAECKLEENPYDLDAWS [K11C] | 2.65

Row | Variant | protein stability index
73 | YVPEKVKKAEEKLEENPYDLDAWS [K11E] | 2.54
74 | YVPEKVKKAENKLEENPYDLDAWS [K11N] | 2.67
75 | YVPEKVKKAEIKLEENPYDLDAWS [K11I] | 3.43
76 | YVPEKVKKAELKLEENPYDLDAWS [K11L] | 2.31
77 | YVPEKVKKAEFKLEENPYDLDAWS [K11F] | 2.06
78 | YVFEKVKKAEKKLEENPYDLDAWS [P3F] | 1.89
79 | YVNEKVKKAEKKLEENPYDLDAWS [P3N] | 2.12
80 | YVVEKVKKAEKKLEENPYDLDAWS [P3V] | 1.97
81 | YVYEKVKKAEKKLEENPYDLDAWS [P3Y] | 3.21
82 | YVGEKVKKAEKKLEENPYDLDAWS [P3G] | 2.28
83 | YVSEKVKKAEKKLEENPYDLDAWS [P3S] | 2.23
84 | YVCEKVKKAEKKLEENPYDLDAWS [P3C] | 2.46
85 | YVAEKVKKAEKKLEENPYDLDAWS [P3A] | 2.27
86 | YVKEKVKKAEKKLEENPYDLDAWS [P3K] | 2.15
87 | YVLEKVKKAEKKLEENPYDLDAWS [P3L] | 1.74
88 | YVEEKVKKAEKKLEENPYDLDAWS [P3E] | 2.7
89 | YVTEKVKKAEKKLEENPYDLDAWS [P3T] | 2.35
90 | YVHEKVKKAEKKLEENPYDLDAWS [P3H] | 2.47
91 | YVWEKVKKAEKKLEENPYDLDAWS [P3W] | 1.76
92 | YVDEKVKKAEKKLEENPYDLDAWS [P3D] | 2.69
93 | YVMEKVKKAEKKLEENPYDLDAWS [P3M] | 1.79
94 | YVIEKVKKAEKKLEENPYDLDAWS [P3I] | 1.99
